Molecular target: mNeonGreen-tagged T-bet DNA binding domain (aa 135-326) Q160A (mouse) (UniProt Q9JKD8)
Assay: FRET or BRET; flow-cytometric FRET in HEK293T cells co-transfected with 730 ng of each vector for mTagBFP- and mNeonGreen-tagged proteins; read 32 hours after transfection; 405 nm laser line, 530/30 bandpass filter; DFRET efficiency

Chain of mTagBFP-tagged GATA3 DNA binding domain (aa 259-369) (P23772 259-369): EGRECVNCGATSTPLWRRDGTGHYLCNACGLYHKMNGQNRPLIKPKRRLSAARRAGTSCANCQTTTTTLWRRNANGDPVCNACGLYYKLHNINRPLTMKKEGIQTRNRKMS
Chain of mNeonGreen-tagged T-bet DNA binding domain (aa 135-326) Q160A (mouse) (Q9JKD8 135-326, stated change not applied): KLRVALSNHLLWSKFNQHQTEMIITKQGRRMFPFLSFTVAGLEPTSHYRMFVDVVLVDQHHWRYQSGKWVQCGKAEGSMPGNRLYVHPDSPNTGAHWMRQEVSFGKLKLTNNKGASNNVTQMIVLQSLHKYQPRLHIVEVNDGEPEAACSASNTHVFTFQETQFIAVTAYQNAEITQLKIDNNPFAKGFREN

reduction of the FRET interaction signal against WT T-bet DBD: 50%
Substance: mTagBFP-tagged GATA3 DNA binding domain (aa 259-369) (from UniProt P23772 259-369) (domain or fragment)
